Here are results for 14 molecules from US20150344570A1 (published 2015).

For assay [1], the target named is T1, FcγRIIb extracellular domain with C-terminal His tag (human, UniProt P31994 43-217).
T1 construct: extracellular domain; soluble analyte in Biacore; also called FcgRIIb; not shown: His tag at the C terminus
T1 sequence (looked up): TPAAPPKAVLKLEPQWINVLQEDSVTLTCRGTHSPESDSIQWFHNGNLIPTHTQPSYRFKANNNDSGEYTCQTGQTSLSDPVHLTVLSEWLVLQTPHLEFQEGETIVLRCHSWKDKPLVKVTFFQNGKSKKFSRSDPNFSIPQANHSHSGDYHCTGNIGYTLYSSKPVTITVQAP
The experiment in a line: SPR, binding relative to GpH7-A5/GpH7-B3/GpL16-k0 = 100. (SPR reads the build-up and loss of mass on a sensor chip optically.)

Assay [2] addresses T2, FcγRIa extracellular domain with C-terminal His tag (human, UniProt P12314 16-292).
T2 construct: extracellular domain; soluble analyte in Biacore; also called FcgRI; not shown: His tag at the C terminus
Described as above.

T2 sequence (P12314 16-292): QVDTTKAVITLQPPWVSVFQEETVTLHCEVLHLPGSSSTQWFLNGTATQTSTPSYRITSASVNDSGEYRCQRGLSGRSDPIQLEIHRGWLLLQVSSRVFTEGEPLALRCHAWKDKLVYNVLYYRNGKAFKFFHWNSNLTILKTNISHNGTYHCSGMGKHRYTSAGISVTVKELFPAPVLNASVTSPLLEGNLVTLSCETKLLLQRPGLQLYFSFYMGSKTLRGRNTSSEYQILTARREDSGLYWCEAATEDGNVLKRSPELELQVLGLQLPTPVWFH

B1: GpH7-A5/GpH7-B3 variant A330_16H/GpL16-k0 (antibody, human IgG1, kappa)
heavy 1: not shown
heavy 2: not shown
light: DIVMTQSPLSLPVTPGEPASISCQASESLVHSNRNTYLHWYLQKPGQSPQLLIYKVSNRFSGVPDRFSGSGSGTDFTLKISRVEAEDVGVYYCSQNTHVPPTFGQGTKVEIERTVAAPSVFIFPPSDEQLKSGTASVVCLLNNFYPREAKVQWKVDNALQSGNSQESVTEQDSKDSTYSLSSTLTLSKADYEKHKVYACEVTHQGLSSPVTKSFNRGEC
notes: change in the GpH7-B3 H chain only; also called He Ab
Regarding B1, in assay [1], the He/Con_2b is 87.6 % of control. For the same molecule, the He/Con_1a in assay [2] was 106 % of control.

B2: GpH7-A5/GpH7-B3 variant E333_07I/GpL16-k0 (antibody, human IgG1, kappa)
heavy 1: not shown
heavy 2: not shown
light: DIVMTQSPLSLPVTPGEPASISCQASESLVHSNRNTYLHWYLQKPGQSPQLLIYKVSNRFSGVPDRFSGSGSGTDFTLKISRVEAEDVGVYYCSQNTHVPPTFGQGTKVEIERTVAAPSVFIFPPSDEQLKSGTASVVCLLNNFYPREAKVQWKVDNALQSGNSQESVTEQDSKDSTYSLSSTLTLSKADYEKHKVYACEVTHQGLSSPVTKSFNRGEC
notes: as for B1
For B2, the He/Con_2b in assay [1] was 96.2 % of control. Further, the He/Con_1a in assay [2] was 102 % of control.

B3: GpH7-A5/GpH7-B3 variant A330_18N/GpL16-k0 (antibody, human IgG1, kappa)
heavy 1: not shown
heavy 2: not shown
light: DIVMTQSPLSLPVTPGEPASISCQASESLVHSNRNTYLHWYLQKPGQSPQLLIYKVSNRFSGVPDRFSGSGSGTDFTLKISRVEAEDVGVYYCSQNTHVPPTFGQGTKVEIERTVAAPSVFIFPPSDEQLKSGTASVVCLLNNFYPREAKVQWKVDNALQSGNSQESVTEQDSKDSTYSLSSTLTLSKADYEKHKVYACEVTHQGLSSPVTKSFNRGEC
notes: as for B1
In the case of B3, in assay [1], the He/Con_2b was 63.7 % of control. Moreover, the He/Con_1a in assay [2] is 106 % of control.

B4: GpH7-A5/GpH7-B3 variant A330_20W/GpL16-k0 (antibody, human IgG1, kappa)
heavy 1: not shown
heavy 2: not shown
light: DIVMTQSPLSLPVTPGEPASISCQASESLVHSNRNTYLHWYLQKPGQSPQLLIYKVSNRFSGVPDRFSGSGSGTDFTLKISRVEAEDVGVYYCSQNTHVPPTFGQGTKVEIERTVAAPSVFIFPPSDEQLKSGTASVVCLLNNFYPREAKVQWKVDNALQSGNSQESVTEQDSKDSTYSLSSTLTLSKADYEKHKVYACEVTHQGLSSPVTKSFNRGEC
notes: as for B1
For the molecule B4, in assay [1], the He/Con_2b is 76.1 % of control. Further, in assay [2], the He/Con_1a is 108 % of control.

B5: GpH7-A5/GpH7-B3 variant E333_11K/GpL16-k0 (antibody, human IgG1, kappa)
heavy 1: not shown
heavy 2: not shown
light: DIVMTQSPLSLPVTPGEPASISCQASESLVHSNRNTYLHWYLQKPGQSPQLLIYKVSNRFSGVPDRFSGSGSGTDFTLKISRVEAEDVGVYYCSQNTHVPPTFGQGTKVEIERTVAAPSVFIFPPSDEQLKSGTASVVCLLNNFYPREAKVQWKVDNALQSGNSQESVTEQDSKDSTYSLSSTLTLSKADYEKHKVYACEVTHQGLSSPVTKSFNRGEC
notes: as for B1
B5: the He/Con_2b in assay [1] is 80.6 % of control. The He/Con_1a in assay [2] is 102 % of control.

B6: GpH7-A5/GpH7-B3 variant E333_06M/GpL16-k0 (antibody, human IgG1, kappa)
heavy 1: not shown
heavy 2: not shown
light: DIVMTQSPLSLPVTPGEPASISCQASESLVHSNRNTYLHWYLQKPGQSPQLLIYKVSNRFSGVPDRFSGSGSGTDFTLKISRVEAEDVGVYYCSQNTHVPPTFGQGTKVEIERTVAAPSVFIFPPSDEQLKSGTASVVCLLNNFYPREAKVQWKVDNALQSGNSQESVTEQDSKDSTYSLSSTLTLSKADYEKHKVYACEVTHQGLSSPVTKSFNRGEC
notes: as for B1
Take B6: in assay [1], the He/Con_2b is 85.4 % of control. Also, in assay [2], the He/Con_1a was 102 % of control.

B7: GpH7-A5/GpH7-B3 variant E333_03V/GpL16-k0 (antibody, human IgG1, kappa)
heavy 1: not shown
heavy 2: not shown
light: DIVMTQSPLSLPVTPGEPASISCQASESLVHSNRNTYLHWYLQKPGQSPQLLIYKVSNRFSGVPDRFSGSGSGTDFTLKISRVEAEDVGVYYCSQNTHVPPTFGQGTKVEIERTVAAPSVFIFPPSDEQLKSGTASVVCLLNNFYPREAKVQWKVDNALQSGNSQESVTEQDSKDSTYSLSSTLTLSKADYEKHKVYACEVTHQGLSSPVTKSFNRGEC
notes: as for B1
Take B7: the He/Con_2b in assay [1] is 93.2 % of control. In addition, in assay [2], the He/Con_1a was 105 % of control.

B8: GpH7-A5/GpH7-B3 variant E333_05P/GpL16-k0 (antibody, human IgG1, kappa)
heavy 1: not shown
heavy 2: not shown
light: DIVMTQSPLSLPVTPGEPASISCQASESLVHSNRNTYLHWYLQKPGQSPQLLIYKVSNRFSGVPDRFSGSGSGTDFTLKISRVEAEDVGVYYCSQNTHVPPTFGQGTKVEIERTVAAPSVFIFPPSDEQLKSGTASVVCLLNNFYPREAKVQWKVDNALQSGNSQESVTEQDSKDSTYSLSSTLTLSKADYEKHKVYACEVTHQGLSSPVTKSFNRGEC
notes: as for B1
As for B8, the He/Con_2b in assay [1] was 97.7 % of control. In addition, in assay [2], the He/Con_1a is 102 % of control.

B9: GpH7-A5/GpH7-B3 variant E333_02A/GpL16-k0 (antibody, human IgG1, kappa)
heavy 1: not shown
heavy 2: not shown
light: DIVMTQSPLSLPVTPGEPASISCQASESLVHSNRNTYLHWYLQKPGQSPQLLIYKVSNRFSGVPDRFSGSGSGTDFTLKISRVEAEDVGVYYCSQNTHVPPTFGQGTKVEIERTVAAPSVFIFPPSDEQLKSGTASVVCLLNNFYPREAKVQWKVDNALQSGNSQESVTEQDSKDSTYSLSSTLTLSKADYEKHKVYACEVTHQGLSSPVTKSFNRGEC
notes: as for B1
With B9, the He/Con_2b in assay [1] is 83.8 % of control. The He/Con_1a in assay [2] was 103 % of control.

B10: GpH7-A5/GpH7-B3 variant A330_19Q/GpL16-k0 (antibody, human IgG1, kappa)
heavy 1: not shown
heavy 2: not shown
light: DIVMTQSPLSLPVTPGEPASISCQASESLVHSNRNTYLHWYLQKPGQSPQLLIYKVSNRFSGVPDRFSGSGSGTDFTLKISRVEAEDVGVYYCSQNTHVPPTFGQGTKVEIERTVAAPSVFIFPPSDEQLKSGTASVVCLLNNFYPREAKVQWKVDNALQSGNSQESVTEQDSKDSTYSLSSTLTLSKADYEKHKVYACEVTHQGLSSPVTKSFNRGEC
notes: as for B1
For the molecule B10, in assay [1], the He/Con_2b is 90.8 % of control. In assay [2], the He/Con_1a was 105 % of control.

B11: GpH7-A5/GpH7-B3 variant E333_08L/GpL16-k0 (antibody, human IgG1, kappa)
heavy 1: not shown
heavy 2: not shown
light: DIVMTQSPLSLPVTPGEPASISCQASESLVHSNRNTYLHWYLQKPGQSPQLLIYKVSNRFSGVPDRFSGSGSGTDFTLKISRVEAEDVGVYYCSQNTHVPPTFGQGTKVEIERTVAAPSVFIFPPSDEQLKSGTASVVCLLNNFYPREAKVQWKVDNALQSGNSQESVTEQDSKDSTYSLSSTLTLSKADYEKHKVYACEVTHQGLSSPVTKSFNRGEC
notes: as for B1
For the molecule B11, the He/Con_2b in assay [1] is 95 % of control. In addition, the He/Con_1a in assay [2] was 102 % of control.

B12: GpH7-A5/GpH7-B3 variant E333_09D/GpL16-k0 (antibody, human IgG1, kappa)
heavy 1: not shown
heavy 2: not shown
light: DIVMTQSPLSLPVTPGEPASISCQASESLVHSNRNTYLHWYLQKPGQSPQLLIYKVSNRFSGVPDRFSGSGSGTDFTLKISRVEAEDVGVYYCSQNTHVPPTFGQGTKVEIERTVAAPSVFIFPPSDEQLKSGTASVVCLLNNFYPREAKVQWKVDNALQSGNSQESVTEQDSKDSTYSLSSTLTLSKADYEKHKVYACEVTHQGLSSPVTKSFNRGEC
notes: as for B1
Turning to B12, in assay [1], the He/Con_2b is 94.3 % of control. The He/Con_1a in assay [2] was 104 % of control.

B13: GpH7-A5/GpH7-B3 variant E333_01G/GpL16-k0 (antibody, human IgG1, kappa)
heavy 1: not shown
heavy 2: not shown
light: DIVMTQSPLSLPVTPGEPASISCQASESLVHSNRNTYLHWYLQKPGQSPQLLIYKVSNRFSGVPDRFSGSGSGTDFTLKISRVEAEDVGVYYCSQNTHVPPTFGQGTKVEIERTVAAPSVFIFPPSDEQLKSGTASVVCLLNNFYPREAKVQWKVDNALQSGNSQESVTEQDSKDSTYSLSSTLTLSKADYEKHKVYACEVTHQGLSSPVTKSFNRGEC
notes: as for B1
Turning to B13, the He/Con_2b in assay [1] was 81.4 % of control. Also, the He/Con_1a in assay [2] was 103 % of control.

B14: GpH7-A5/GpH7-B3 variant E333_04F/GpL16-k0 (antibody, human IgG1, kappa)
heavy 1: not shown
heavy 2: not shown
light: DIVMTQSPLSLPVTPGEPASISCQASESLVHSNRNTYLHWYLQKPGQSPQLLIYKVSNRFSGVPDRFSGSGSGTDFTLKISRVEAEDVGVYYCSQNTHVPPTFGQGTKVEIERTVAAPSVFIFPPSDEQLKSGTASVVCLLNNFYPREAKVQWKVDNALQSGNSQESVTEQDSKDSTYSLSSTLTLSKADYEKHKVYACEVTHQGLSSPVTKSFNRGEC
notes: as for B1
With B14, in assay [1], the He/Con_2b was 94.6 % of control. Moreover, in assay [2], the He/Con_1a is 102 % of control.
